This note sets out measurements from the DeepSol protein solubility set.

The nature of this data set: soluble on expression in E. coli; label from the status in PepcDB or PDB records.
With “MTEKEKMLAEKWYDANFDQYLINERARAKDICFELNHTRPSATNKRKELIDQLFQTTTDNVSISIPFDTDYGWNVKLGKNVYVNTNCYFMDGGQITIGDNVFIGPNCGFYTATHPLNFHHRNEGFEKAGPIHIGSNTWFGGHVAVLPGVTIGEGSVIGAGSVVTKDIPPHSLAVGNPCKVVRKIDNDLPSETLNDETIK”, the “soluble on expression in E. coli” value was “soluble”. Regarding “MTEKVSRFPGVFPLIVIGVPGSVDKTHKKLAFAPNLNRWRDIDVEKYFKVFEVYLENDANLAALAEMMRNKHFGDRKNIVYILVREGIGGGIIIEGKLYKGSFNAAGEIGHMKMYDRGPCFCGRVGCWEANTSISHCVRQYEKKKPLPGNTMYEKFETLCRIYEEDPLAKEVLDEFTGILIDGIVNLVNILSPEIVIVGGEGVFLPESVFEVIVSETRRQVHPMDKEVSVEKGSLSNKEVVLEGTSILSSMMISERLV”, the “soluble on expression in E. coli” value was “soluble”. To “MTENCCVPGGTVMILSCSGGSNVGQLSNQAAVELTREGVGKMFCLAGIGGQLSGFVQSARDVPEMVTIDGCSVGCAKAILEKARVPLKSYLVLTDLGIEKNKNFELSSHDIRRVKEAVKALLFEK” belongs “soluble”; to “MTEPTVARPDIDPVLKMLLDTFPVTFTAADGVEVARARLRQLKTPPELLPELRIEERTVGYDGLTDIPVRVYWPPVVRDNLPVVVYYHGGGWSLGGLDTHDPVARAHAVGAQAIVVSVDYRLAPEHPYPAGIDDSWAALRWVGENAAELGGDPSRIAVAGDSAGGNISAVMAQLARDVGGPPLVFQLLWYPTTMADLSLPSFTENADAPILDRDVIDAFLAWYVPGLDISDHTMLPTTLAPGNADLSGLPPAFIGTAEHDPLRDDGACYAELLTAAGVSVELSNEPTMVHGYVNFALVVPAAAEATGRGLAALKRALHA”, “soluble”. To “MTEQKNKTSLIEFPCTFPLKVMGAVHPEFEQAVLDTVRLHAPDTQAHHITTRPSSKGNYTGATVQVKVENQEQLDNIYRALTSHELVKVVL” belongs “not soluble”; to “MTEQQKFKVLADQIKISNQLDAEILNSGELTRIDVSNKNRTWEFHITLPQFLAHEDYLLFINAIEQEFKDIANVTCRFTVTNGTNQDEHAIKYFGHCIDQTALSPKVKGQLKQKKLIMSGKVLKVMVSNDIERNHFDKACNGSLIKAFRNCGFDI”, “not soluble”. The same measure for “MTEQYYKIALLFNANKVYDRQVVEGIGQYIQASQCMWDIFVEDEFIYHTDTINQLSIDGIIADFDDPKTVELLQHTLIPTIAVGGSYKQADFYPHFPYIATDNMALVEMALSHLQEKGLSQFAFYGLQVNTHKHWSIERRDAFVELMEKNHYPIYLYEGVQVHAQNWLEEQQKLIVWLKSLPSHTGIIAVTDARARHLLQACEYSKIAVPEELCVVGIDNEELIQYLSRMSLSSVEQGTREIGYQAAKLLHKLLNGQKVSHTPILIPPITVHSRNSTDYRSLTDPLVIQAMHYIRHRACHRIKVGQVLDHLETSRSNLEQRFKNEMNKTIHQVIHEEKISRAKNLLQQTDISIKEITEICGYPSIQYFYSVFKKEFEMTPKEFRLNC”: “not soluble”. As to “MTESEVRKLLRQMKELDSQTAFRDFYNMTYDRLFRIAYYYVKQEEWSQEIVLDIFLKLWKQRDTLLDVKNIEDYCFILVKNASLNYLEKESKYTTIHSDSLPEPQEQSYSPEESLISEELFAIYVKALDRLPERCREIFIRIREEKQSYAQVAEELDISIKTVDAQLQKAVSRLKEMISSSG”, the “soluble on expression in E. coli” value was “not soluble”.

Regarding “MTFAPGFSGGLSPAYRLGSRRSPSPFSEEVRAEEGPGAGGFSQVFHTPCLCLGTMRWKSVLGLAVLLLASLALAQALTLDLRPYLVKVVEGKEVYEANPLAVRPGDVLEWRLVAENRAQGDLRQVALVIPIPKETYYLEGSAKPLQVGGTIVPPEFSFDGGKTFGRPPLKKRIRVVENGKEVEKEVEVKPEEYTHARWVIPVLSKGDKVMVSLRTIVR”, the “soluble on expression in E. coli” value was “soluble”. The same measure for “MTFEDLHEYLDYLAKKNDLVTITEEVDPNLDLTYILSEEERMGRGRTILFKNVKGSQVPAVGNLFSTNEKLKAVLGDDPYSIGVKIADIVKPPRDSESFIGKGLEMMRELSGLRPKVSNSIPSGYSELEKVDLYRYPICKTWPDDGGPFITLPLVITKDPSTGIRNMGMYRMQVYDSETTGMHWHIHKGGSENFLKEKEKGKAMDVAVVIGSDPLTIFSAVAPLPNGIDEFMFRGLISRKRSELVKGKTVDLEYPRNFEIVLEGYIDPSETRVEGPFGDHTGYYSLEEEFPVFHVKNIIERNDRIYPTTIVGKLWHEDVVLGKAVERMFLPLIQMVLPEVVDINTMEEAVFHNMVIVSIKKRYPGHAKKVMFALWGLGQLMFSKIIVVVDDDINIHNRKELIWAMTTRIDPDRDVIIIPGTVTDSLDHAAPLFNYGSKMGIDATKKDKSEGYTRRWPDVLEMPKDVVDKVRQIMKNNRLIQLEHHHHHH”: “not soluble”. The same measure for “MTFELKYTDRSYLPDQFKAISGNPPVEWKVTNNLVEYPEALRYMQERVENILAQNAHEQVWLLEHPSLYTAGTSAKKKDLLTPHLFPVYEAGRGGEFTYHGPGQRIAYIMLDLKRRRQDIRAFISALEEWIIQMLAKFNIKGERREDRVGVWVQRHSCQSTQNSLYSEDKIAAIGIRVRKWVSFHGVSINVDPNLAHYSGIVPCGITNHGVTSFLDLGLPTKMHDIDIALKQSFEQIFGPIIDIS”: “not soluble”; for “MTFTPPEFKILSVNTRNLETIFSTLLGRYKIITDPPVSEAVSSGEIIRNTLETLLARTHKVVICKTDRETARDVFKQLSNELREVLKENNEEKNKQAILFLLGALLHRYFRLIKEYDNFNSYIPYPSFLFSKPPSNVKDCRLFQAIRLALGLPEVMERNYRINDLKILDVTTIVTALETFRDNMQLIVGKDEGKMPRYKSYPHFAADKNFETYLQEIIDEHKRRNPVVLNQFKAINFIQSLVKQIEEEQRQIEEALTHLGKFLPKTCSDFKTISLELMEEQIKAQIESNVLQEKIIDLLYTGHIQENFSTMDCGSFIEAMKNCNSSLARYRALGGYCLLLQNEGVKEQLRFCIHQALGVEINPNELTDKDMLDAIRLLKTYFEANPKVELNFDFFNGKGSMNTFILQTELALAKKVQTVNKAQEDNSETRTTSLFV”: “not soluble”. The same measure for “MTGALNQAQKTPWRYGFLNLMRRVDAQLCDTPAGSIWQPRMEKFRLGQTPTMTFAPREIAQVSWQDGRLHLSLYSLGLWGPNGPLPLHYTELALNRSESRHDPTLVHFSNIFHHRWLTQFWQAWRSAQSAGGGLDKPEHDRFAFYIASLSGQDLRESAESPLSDHVRLAASAHLVRESRNPDGLAATLAHYFSVPFAVKEFALHWITVANDEITRLGTPAQSSVLGNGALIGQAVPDMQYKFRLIIGPLTLEDYLRFLPGGNNLPVLTELVRTFIGFEYCWEIELQLKPHAAPPAVIGGAQRLGWTAWAGKAMHDRPVTGMIFEPEHGLTH”: “not soluble”. With “MTGGTGADAASAGASSTRPELRGERCLPPAGPVKVTPDDPRYLNLKLRGANSRFNGEPDYIHLVGSTQQVADAVEETVRTGKRVAVRSGGHCFEDFVDNPDVKVIIDMSLLTEIAYDPSMNAFLIEPGNTLSEVYEKLYLGWNVTIPGGVCGGVGVGGHICGGGYGPLSRQFGSVVDYLYAVEVVVVNKQGKARVIVATRERDDPHHDLWWAHTGGGGGNFGVVTKYWMRVPEDVGRNPERLLPKPPATLLTSTVTFDWAGMTEAAFSRLLRNHGEWYERNSGPDSPYTGLWSQLMIGNEVPGMGESGFMMPIQVDATRPDARRLLDAHIEAVIDGVPPAEVPEPIEQRWLASTPGRGGRGPASKTKAGYLRKRLTDRQIQAVYENMTHMDGIDYGAVWLIGYGGKVNTVDPAATALPQRDAILKVNYITGWANPGNEAKHLTWVRKLYADVYAETGGVPVPNDVSDGAYINYPDSDLADPGLNTSGVPWHDLYYKGNHPRLRKVKAAYDPRNHFHHALSIRP”, the “soluble on expression in E. coli” value is “soluble”. Consider “MTGHRPACPPIPADVYTRLERRIGRCHLNQRLGIEHDFEARIFGQGRTFFHIENWNRLHTLLRRLLKLSLLYRPGQRAARRIEIRRNEFTLPHLPEAFEGYTLLHISDLHLDMAGDLPDALIRAIGQAGHYDACVLTGDFRARTFGPYRGAIDGLAQVRTHIDKPVFAILGNHDTIRMTPEIEDLGIGVLLNEAREIRQDGASIFLAGVDDPHYYRADNIEKAADPIPQGAVSILLSHSPELYRHAAYADFDIMLCGHTHGGQICLPGGIALTLNARCPRAFGRGYWRYHRMQGYTSAGSGVSILDIRLNCPPEITLHRLSRHRLSKGGCECGGGKGLEHHHHHH”, for which the “soluble on expression in E. coli” value is recorded as “soluble”.

As to “MTGKLYGNKDNFRTQKVLIAAKLANKTVTLAGDAAPADKFPLGVTPAFEGDALLFGAESIGLHLTGTSANAETVQWLQFAEGYLLPAVLGYVLPSVSAANFDKKTVEQYKNELNGQLQVLDRVLVKKTYLVGERLSLADVSVALDLLPAFQYVLDANARKSIVNVTRWFRTVVNQPAVKEVLGEVSLASSVAQFNQAKFTELSAKVAKSAPKAEKPKKEAKPAAAAAQPEDDEPKEEKSKDPFQDMPKGTFVLDNFKRSYSNEDTATKAIPHFWENFDADNWSIWKCEYKYPEDLTLAFMSCNLINGMYQRLEKLKKNAFASMILFGTDNNSTISGIWVWKGDKLAFELSPDWQVDYESYTWTKLDAKSDATKKEVNEYLMWEGDFGGKKFNQGKIFK”, the “soluble on expression in E. coli” value is given as “soluble”.

On to “MTGSATRFGGSPGPVFALEKGERVEQMKLFKTYKEQVELLGQRGMQIDNSERAEKLLAQLNYYRLSGYWYPMRRFSPQNGIAQDEFVDGASFDLVVALYEFDERLRHSVFIELDRVELAIQTRLGHELGRLDPLIYLDPQRLGARASQRGKGERTVHEVWIGKYQSALKASKEDFVAHHNSKYGGTLPIWAAVEVMDWGMLSYLYGMSPNIVRKRIAEPCGLTGPQLESWLKSLNILRNYAAHHARMFNRVYDIKPKLNNDPKLTPVANRMNRVFGQLSMIQYLHHQLGLSQADRLTRLFNTYPHNPIVPLSRTGAPENWQELALWVP”, for which the “soluble on expression in E. coli” value was “not soluble”. The same measure for “MTGSCSDLLGFQYNNTVISSATLQETGTLTVANKPIGAHCLVKGYMDQHVSPVDGQTYQIGFEMRLPIDWNGRFLYQGNGGTDGNLVPATGQVGSGGPLTNALHDGFAIISSDAGHNASQNPMFGLDPQARINYGYGAITKLTPMAKNLIKAAYGKLPDRSYAGGTSNGGRHAMIAATRLGDQYDGILASTPGFHLPRAAAAQLYTAQQLRRVATDENDLSTALTLPERKVLAKAILDRCDALDGVTDGLVQDVEACRTAFDIHKHVTVCSSTRDGTCLSTEQIDVLANIYRGPVNSAGQALYATQPFDPGLVGSNWASWKFESSVGTARDPVAVGILFQVPPDPTVTQNSRQFALNFNFDTDYPKLSATNDVYTESSMSFMMPPDELNLDKLRNHGGKMIVVQGTADGVFSVDDTQNWYDQLLQHYKNDAKGTAPEFARFFRVPGMNHTRDGIATDQFDALTALVNWVEYGQAPDKIIATARGAGNPSGQVNTEIPQDWAPDRTRPLCPYPLIARYNGQGDLEHHHHHH”: “not soluble”; for “MTHAPTTTPLRTAAKLLAAGAAALTLNSCAYDGIKVIVINMFQGEAQPFIDRYDLKEKVYIAGLSPDAPNLLCNYDGICQVTTGMGYANAAATLSALLYRSKLDLTQTYFVIAGIAGIDPGQGTVGSAAWARYAVDYGLSHEIDAREMPAAWPYGYFGIGTKGPGEKPPMNYRTEVFRLNEALLQRAYALSKPVTLEDSPEAIAFRKHYAYAPANQPPAVIQCDVASADTWWAGRNLGQRARDWTKTMTDGKGTYCTTAQEDNATLEVLARGARAGKVDFSRVALLRTGSDFDRPYDGQSAADGLVNYAQQGGFVPATHNLVNAAKPLLDDIVLRWPQWAQGVPANLEHHHHHH”: “not soluble”. The same measure for “MTHNHHHQAVDNLLNVFSRASHDLTVVHSKLDKEFQQMYPANANPMKLIQRIKKLQEDVTLLKHQCLDLLSAKQDLIDKAQTTLVGNCNLIQKMNASLGESTNGDTDDALADFNQIIDEWTMQVRSRTVGETEDADKEDINKMLFSAICHTN”: “soluble”.
